Four molecules from patent publication EP4803537A1 (PHRONTLINE BIOPHARMA (SUZHOU) CO., LTD, dated 2026) can be followed below.

For test [1], the target named is T1, recombinant human FcγRI protein (ACRO Biosystems, Cat. FCA-H52H1) (human, UniProt P12314 16-288, limits assumed).
T1 construct: Captured on anti-His (HIS1K) biosensors, so it carries a His tag; also called FcγRI receptor
Description: BLI (Octet Red 96), FcγRI on HIS1K sensors.

Test [2] addresses T2, Recombinant human EGFR protein (ACRO Biosystems, EGR-H5222) (human, UniProt P00533 25-645).
T2 construct: Bought protein
Put plainly: ELISA, EGFR coated on the plate.

T1 sequence (P12314 16-288 limits assumed): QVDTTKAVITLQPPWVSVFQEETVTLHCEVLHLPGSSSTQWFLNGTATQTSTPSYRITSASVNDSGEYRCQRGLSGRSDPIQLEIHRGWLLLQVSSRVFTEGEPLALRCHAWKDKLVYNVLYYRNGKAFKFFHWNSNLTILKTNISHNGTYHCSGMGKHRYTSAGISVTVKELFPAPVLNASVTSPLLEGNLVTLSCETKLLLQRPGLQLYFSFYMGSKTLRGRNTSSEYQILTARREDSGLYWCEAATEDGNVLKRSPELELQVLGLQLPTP

B1: Fab-Fc/Fab-Fc bispecific antibody (zalutumumab Fab x pertuzumab Fab), KIH combination (K0/H0) (bispecific antibody, human IgG1, kappa)
heavy 1: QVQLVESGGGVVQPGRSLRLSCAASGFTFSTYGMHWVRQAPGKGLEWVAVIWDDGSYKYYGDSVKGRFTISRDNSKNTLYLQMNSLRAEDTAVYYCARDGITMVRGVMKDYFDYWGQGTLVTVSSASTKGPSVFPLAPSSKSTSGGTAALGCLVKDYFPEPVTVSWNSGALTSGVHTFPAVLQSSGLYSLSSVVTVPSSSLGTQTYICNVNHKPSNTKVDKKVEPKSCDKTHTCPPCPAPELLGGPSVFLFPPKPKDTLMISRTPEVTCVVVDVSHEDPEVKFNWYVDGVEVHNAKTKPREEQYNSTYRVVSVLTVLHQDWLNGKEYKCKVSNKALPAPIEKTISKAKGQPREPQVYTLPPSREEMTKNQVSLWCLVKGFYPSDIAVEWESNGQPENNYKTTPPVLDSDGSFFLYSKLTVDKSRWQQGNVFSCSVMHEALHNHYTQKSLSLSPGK
light 1: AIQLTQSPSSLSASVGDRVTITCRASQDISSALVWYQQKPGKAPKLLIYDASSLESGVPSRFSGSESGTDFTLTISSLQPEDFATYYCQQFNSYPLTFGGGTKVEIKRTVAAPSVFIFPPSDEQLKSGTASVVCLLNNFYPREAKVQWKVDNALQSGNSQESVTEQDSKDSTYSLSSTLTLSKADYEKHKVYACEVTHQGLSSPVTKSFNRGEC
heavy 2: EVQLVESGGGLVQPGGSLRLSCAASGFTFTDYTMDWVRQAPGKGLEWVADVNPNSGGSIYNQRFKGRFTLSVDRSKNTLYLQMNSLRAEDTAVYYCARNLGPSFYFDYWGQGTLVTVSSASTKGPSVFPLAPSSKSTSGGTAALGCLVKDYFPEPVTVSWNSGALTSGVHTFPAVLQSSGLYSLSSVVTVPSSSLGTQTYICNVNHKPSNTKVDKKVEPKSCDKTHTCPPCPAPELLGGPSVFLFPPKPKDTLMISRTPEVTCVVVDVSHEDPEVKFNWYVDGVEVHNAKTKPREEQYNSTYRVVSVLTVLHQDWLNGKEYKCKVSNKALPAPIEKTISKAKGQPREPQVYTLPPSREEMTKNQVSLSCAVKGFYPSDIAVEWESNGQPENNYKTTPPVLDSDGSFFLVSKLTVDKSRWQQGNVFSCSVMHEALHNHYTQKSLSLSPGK
light 2: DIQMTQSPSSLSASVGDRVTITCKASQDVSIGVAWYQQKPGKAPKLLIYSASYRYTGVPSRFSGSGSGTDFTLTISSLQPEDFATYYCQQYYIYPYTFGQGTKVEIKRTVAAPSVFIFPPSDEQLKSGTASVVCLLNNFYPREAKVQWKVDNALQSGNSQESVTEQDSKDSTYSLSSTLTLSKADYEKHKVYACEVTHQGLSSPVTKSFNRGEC
notes: Human IgG1 Fc (hinge, CH2, CH3); the exact junction between VH-CH1 and Fc (EU 221-447) is not spelled out; also called KIH control
As to B1, the binding result in test [1] and in test [2] was “binds” in each case.

B2: Fab-Fc/Fab-Fc bispecific antibody (zalutumumab Fab x pertuzumab Fab), M2 mutant combination (K0/H8) (bispecific antibody, human IgG1, kappa)
heavy 1: not shown
light 1: not shown
heavy 2: EVQLVESGGGLVQPGGSLRLSCAASGFTFTDYTMDWVRQAPGKGLEWVADVNPNSGGSIYNQRFKGRFTLSVDRSKNTLYLQMNSLRAEDTAVYYCARNLGPSFYFDYWGQGTLVTVSSASTKGPSVFPLAPSSKSTSGGTAALGCLVKDYFPEPVTVSWNSGALTSGVHTFPAVLQSSGLYSLSSVVTVPSSSLGTQTYICNVNHKPSNTKVDKKVEPKSCDKTHTCPPCPAPELLGGPSVFLFPPKPKDTLMISRTPEVTCVVVDVSHEDPEVKFNWYVDGVEVHNAKTKPREEQYNSTYRVVSVLTVLHQDWLNGKEYKCKVSNKALPAPIEKTISKAKGQPREPQVYTYPPSREEMTKNQVSLSCAVKGFYPSDIAVEWESNGQPENNYKTTPPVLDSDGSFFLVSKLTVDKSRWQQGNVFSCSVMHEALHNHYTQKSLSLSPGK
light 2: not shown
notes: Human IgG1 Fc; Junction between VH-CH1 and Fc not spelled out; no linker named for this format
On to B2, for which the binding result in test [1] and in test [2] was “binds” in each case.

B3: Fab-Fc/Fab-Fc bispecific antibody (zalutumumab Fab x pertuzumab Fab), M1 mutant combination (K2/H2) (bispecific antibody, human IgG1, kappa)
heavy 1: not shown
light 1: not shown
heavy 2: EVQLVESGGGLVQPGGSLRLSCAASGFTFTDYTMDWVRQAPGKGLEWVADVNPNSGGSIYNQRFKGRFTLSVDRSKNTLYLQMNSLRAEDTAVYYCARNLGPSFYFDYWGQGTLVTVSSASTKGPSVFPLAPSSKSTSGGTAALGCLVKDYFPEPVTVSWNSGALTSGVHTFPAVLQSSGLYSLSSVVTVPSSSLGTQTYICNVNHKPSNTKVDKKVEPKSCDKTHTCPPCPAPELLGGPSVFLFPPKPKDTLMISRTPEVTCVVVDVSHEDPEVKFNWYVDGVEVHNAKTKPREEQYNSTYRVVSVLTVLHQDWLNGKEYKCKVSNKALPAPIEKTISKAKGQPREPQVYTLPPSREEMTKNQVSLSCAVKGFYPSDIAVEWESNGQPENNYKTTPPVLRSDGSFFLVSKLTVDKSRWQQGNVFSCSVMHEALHNHYTQKSLSLSPGK
light 2: not shown
notes: as for B2
As to B3, the binding result in test [1] and in test [2] was “binds” throughout.

B4: Fab-Fc/Fab-Fc bispecific antibody (zalutumumab Fab x pertuzumab Fab), M3 mutant combination (K2/H7) (bispecific antibody, human IgG1, kappa)
heavy 1: not shown
light 1: not shown
heavy 2: EVQLVESGGGLVQPGGSLRLSCAASGFTFTDYTMDWVRQAPGKGLEWVADVNPNSGGSIYNQRFKGRFTLSVDRSKNTLYLQMNSLRAEDTAVYYCARNLGPSFYFDYWGQGTLVTVSSASTKGPSVFPLAPSSKSTSGGTAALGCLVKDYFPEPVTVSWNSGALTSGVHTFPAVLQSSGLYSLSSVVTVPSSSLGTQTYICNVNHKPSNTKVDKKVEPKSCDKTHTCPPCPAPELLGGPSVFLFPPKPKDTLMISRTPEVTCVVVDVSHEDPEVKFNWYVDGVEVHNAKTKPREEQYNSTYRVVSVLTVLHQDWLNGKEYKCKVSNKALPAPIEKTISKAKGQPREPQVYTYPPSREEMTKNQVSLSCAVKGFYPSDIAVEWESNGQPENNYKTTPPVLRSDGSFFLVSKLTVDKSRWQQGNVFSCSVMHEALHNHYTQKSLSLSPGK
light 2: not shown
notes: as for B2
With B4, the binding result in test [1] and in test [2] was “binds” each time.
